Data from PMC10528150, “Mutant Cytochrome C as a Potential Detector of Superoxide Generation: Effect of Mutations on the Function and Properties” (Cells, 2023).
One block for each binder: values may come before it.

Target: cytochrome c oxidase (ferrocytochrome c:oxygen oxidoreductase), solubilized complex
Experiment: cell-based or functional assay

Activity in the cytochrome c oxidase reaction, % of WT: < 1%
B1: cytochrome c with substitutions K8E/K27E/E62K/E69K/K72E/K86E/K87E/E90K (natural protein)
chain: not shown
modifications: heme c (hemoporphyrin type c)

Activity in the cytochrome c oxidase reaction, % of WT: 100%
B2: cytochrome c wild type (recombinant horse heart CytC) (natural protein)
chain: not shown
modifications: heme c (hemoporphyrin type c, Fe ligated by His18 and Met80)
